Assay results as given in patent publication US10350264B2, “Compositions and methods for modulating NCOA4-mediated autophagic targeting of ferritin” (Dana-Farber Cancer Institute, Inc., priority 2014, dated 2019).

How the values were obtained:
Assay type in all cases: binding
[1] = target: T1, ferritin purified from horse spleen (mixture of FTH1 and FTL subunits) (Equus caballus, UniProt Q8MIP0); assay: anti-MYC immunoprecipitation of in vitro translated MYC-NCOA4 constructs incubated with ferritin; settings: anti-MYC IP, anti-FTH1 immunoblot, FIG. 5
T1 construct: ferritin purified from horse spleen; purchased Sigma A3641-100 mg; host or cells: horse spleen
T1 sequence (Q8MIP0 whole entry): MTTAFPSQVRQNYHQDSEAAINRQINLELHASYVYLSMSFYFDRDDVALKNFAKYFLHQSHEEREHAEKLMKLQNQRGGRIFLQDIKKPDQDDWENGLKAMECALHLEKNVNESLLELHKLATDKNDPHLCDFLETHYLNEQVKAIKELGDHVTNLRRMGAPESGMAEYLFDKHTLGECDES
T1 sequence (P02791 2-175 partner limits assumed): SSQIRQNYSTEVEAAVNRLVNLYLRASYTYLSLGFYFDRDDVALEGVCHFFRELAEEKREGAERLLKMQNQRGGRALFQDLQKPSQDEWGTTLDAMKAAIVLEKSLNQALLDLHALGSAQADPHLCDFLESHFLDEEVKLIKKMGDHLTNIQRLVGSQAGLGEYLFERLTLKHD
Procedure: To probe the interaction between ferritin and NCOA4, initial binding assays using MYC-tagged NCOA4 full-length and truncation constructs produced using an in vitro translation (“IVT”) system were conducted. MYC-NCOA4 fragments were cloned using PCR into a modified T7 cell-free expression vector (pT7CFE1-NMyc, #88863, Thermo Scientific). 1-Step Human Coupled IVT Kit—DNA from Thermo Scientific (product #88881) was used to produce MYC-tagged NCOA4 constructs as described in the product manual. Apoferritin (Sigma, A3641-100 mg) was added in a pull-down assay using anti-c-Myc Agarose Affinity Gel antibody produced in rabbit (Sigma, A7470-1 ML). Affinity purification reactions were washed thoroughly with 150 mM NaCl, 20 mM Tris (pH 7.4), and 2 mM dithiothreitol. Proteins were eluted with SDS sample buffer and analyzed by 4-20% gradient SDS-PAGE and immunoblotting with anti-FTH1 antibody (Cell Signaling 3998; Western blot 1:1,000) or anti-MYC antibody (Santa Cruz Sc-40; western blot 1:1,000).
The full-length, N-terminal (amino acids (aa) 1-245 of SEQ ID NO: 4) and C-terminal (aa 235-614 of SEQ ID NO:4) MYC-NCOA4 were incubated with ferritin purified from horse spleen (Apoferritin (Sigma, A3641-100 mg), consisting of a mixture of FTH1 and FTL subunits) and anti-MYC immunoprecipitation was performed followed by immunoblotting as described above.

recombinant human FTL = target: T2, recombinant human FTL (Homo sapiens, UniProt P02792); assay: GST pull-down assay of recombinant FTL using GST-NCOA4; settings: recombinant FTL from E. coli, 0.2 μg and 1 μg; FIG. 10B; listed as GST-NCOA4 fragment
T2 construct: made in house; host or cells: Rosetta E. coli (EMD Millipore, 70953-3)
T2 sequence (P02792 whole entry, the tested form may be a part): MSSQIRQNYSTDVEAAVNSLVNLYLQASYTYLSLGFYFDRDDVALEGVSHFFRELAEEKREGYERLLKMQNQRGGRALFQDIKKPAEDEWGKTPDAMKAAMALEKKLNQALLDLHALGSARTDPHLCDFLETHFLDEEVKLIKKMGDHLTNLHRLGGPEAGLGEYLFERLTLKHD
Procedure: (§1) In the GST pull-down assay, lysates were incubated with 10 μl of a 50% (v/v) slurry of glutathione Sepharose 4B beads (GE Healthcare Lifesciences, 17-0756-01) for 30 minutes at 4° C. Beads were washed thoroughly with 150 mM NaCl, 20 mM Tris (pH 7.4), 2 mM dithiothreitol (DTT), 0.5% (w/v) Nonidet P-40, leaving 50-100 μg of GST-fusion protein bound to the beads. Beads were then mixed with 0.5-2 μg of apo-ferritin purified from equine spleen (Sigma F4503) or recombinant human FTH1 or FTL produced in Rosetta E. coli (EMD Millipore, 70953-3). The assay mix was incubated for 2 hours at 4° C., and beads were washed four times with 1 ml wash buffer. Proteins were eluted with SDS sample buffer and analyzed by 4-20% gradient SDS-PAGE and immunoblotting with anti-FTH1 antibody (as above) or anti-FLAG antibody (Sigma, F1804-200 UG). Pounceau stain was used to visualize GST-NCOA4 bands. (Pounceau, Sigma, P7170-1 L, protocol as per product manual).
(§2) To understand if there was subunit specificity for NCOA4 binding to ferritin, the NCOA4 C-terminus (aa 235-614) fusion protein was immobilized on glutathione Sepharose beads, as described in Example 1. Recombinant purified FTH1 or FTL produced in E. coli was added at concentrations of 0.2 μg and 1 μg, and binding was determined using the GST pull-down assay described in Example 1, above.

recombinant human FTH1 = target: T3, recombinant human FTH1 (Homo sapiens, UniProt P02794); assay: GST pull-down assay of recombinant FTH1 using GST-NCOA4; settings: recombinant FTH1 from E. coli, 0.2 μg and 1 μg, FIG. 10A
T3 construct: made in house; host or cells: Rosetta E. coli (EMD Millipore, 70953-3)
T3 sequence (P02794 whole entry): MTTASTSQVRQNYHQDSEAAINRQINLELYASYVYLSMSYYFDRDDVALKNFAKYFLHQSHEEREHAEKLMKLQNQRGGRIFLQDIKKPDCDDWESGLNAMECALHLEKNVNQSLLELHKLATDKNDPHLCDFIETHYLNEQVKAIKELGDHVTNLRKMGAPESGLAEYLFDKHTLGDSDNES
Procedure: as §1, §2

[2] = target: T4, apo-ferritin purified from equine spleen (Equus caballus, UniProt Q8MIP0); assay: GST pull-down assay of ferritin using GST-NCOA4 fragments; settings: anti-FTH1 immunoblot, FIGS. 7, 8, 11
T4 construct: apo-ferritin purified from equine spleen; purchased Sigma F4503; host or cells: equine spleen
T4 sequence (Q8MIP0 whole entry, the tested form may be a part): as the sequence (Q8MIP0 whole entry) above
T4 sequence (P02791 2-175 partner limits assumed): as the sequence (P02791 2-175 partner limits assumed) above
Text: GST-tagged NCOA4 constructs were also made to probe the interactions of C-terminal portions of NCOA4 with ferritin. NCOA4-truncation constructs were produced using Gateway cloning (Invitrogen, Life Technologies, catalog #11789-013 and 11791-019) into a pDEST60 N-terminal GST fusion plasmid (GST-NCOA4) from EMD Millipore (Gateway Nova pET-60-DEST, product #71851-3) and transformed in E. coli BL21 (DE3) cells (New England Biosciences, C2527I).
NCOA4 truncation constructs were designed based on NCBI reference sequence: NP_001138735.1 (SEQ ID NO: 4). In particular, fragments of SEQ ID NO: 4 consisting of amino acids (aa) 1-245, aa 235-614, aa 235-560, aa 235-401, aa 383-560, aa 545-614, aa 383-522, aa 510-560, aa 383-436, aa 436-485, aa 475-522, aa 475-500, aa 480-500, aa 480-504, aa 485-509, aa 490-514, aa 495-522 were designed. Protein expression in the DE3 cells was induced with 1 mM isopropyl-beta-D-thiogalactopyranoside (IPTG) (Sigma, I6758-10 G) for 3 hours at 37° C. Cells were collected by centrifugation, re-suspended in 25 mM Tris-HCl (pH 7.4), 10% (w/v) sucrose and lysed with a single freeze-thaw cycle followed by sonication. After centrifugation, a GST pull-down assay was performed.
as §1

association of MYC-NCOA4 construct with ferritin [1]: associated with ferritin | association of MYC-NCOA4 construct with ferritin ([1]; listed as C-terminal NCOA4): bind to ferritin | binding of GST-NCOA4 to FTL (recombinant human FTL): binds minimally to FTL | binding of GST-NCOA4 to FTH1 (recombinant human FTH1; listed as GST-NCOA4 fragment): binds to FTH1 | binding of GST-NCOA4 to FTH1 (recombinant human FTH1; listed as NCOA4 C-terminus): interacted with the NCOA4 C-terminus | binding of GST-NCOA4 fragment to ferritin [2]: bound to ferritin
B1: aa 235-614: NCOA4 C-terminal fragment, amino acids 235-614 of SEQ ID NO: 4 (protein)
chain: ENSQTSSRACNFFNNVGGNLKGLENWLLKSEKSSYQKCNSHSTTSSFSIEMEKVGDQELPDQDEMDLSDWLVTPQESHKLRKPENGSRETSEKFKLLFQSYNVNDWLVKTDSCTNCQGNQPKGVEIENLGNLKCLNDHLEAKKPLSTPSMVTEDWLVQNHQDPCKVEEVCRANEPCTSFAECVCDENCEKEALYKWLLKKEGKDKNGMPVEPKPEPEKHKDSLNMWLCPRKEVIEQTKAPKAMTPSRIADSFQVIKNSPLSEWLIRPPYKEGSPKEVPGTEDRAGKQKFKSPMNTSWCSFNTADWVLPGKKMGNLSQLSSGEDKWLLRKKAQEVLLNSPLQEEHNFPPDHYGLPAVCDLFACMQLKVDKEKWLYRTPLQM
modifications: Homo sapien
